In general, stoichiometry N refers to the number of molecules, sites or subunits per partner or assembly.

This series deals with the molecule itself. The series can be described thus: SDS-PAGE.

B1: T74S KcsA (pH-gated potassium channel KcsA with the mutation T74S) (natural protein, UniProt P0A334 1-160, looked up)
chain: MPPMLSGLLARLVKLLLGRHGSALHWRAAGAATVLLVIVLLAGSYLAVLAERGAPGAQLITYPRALWWSVETASTVGYGDLYPVTLWGRLVAVVVMVAGITSFGLVTAALATWFVGREQERRGHFVRHSEKAAEEAYTRTTRALHERFDRLERMLDDNRR
Take B1: the “stoichiometry N” value was found to be 4.

The values above are taken from publication PMC8294337 (BBA advances, 2021).
